36 sequences from the supplement of paper PMC10567573 can be followed below.

± gives the standard deviation.

This data set can be described thus: protein stability index of a GFP-peptide fusion (GPS, HEK-293T) (PSI 1-6); higher = more stable. The settings on record: c terminus: a fixed tail appended.
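Note: 24-mer peptide tiles fused after GFP, lentivirally expressed, FACS-sorted into six equal bins by GFP/DsRed ratio, decoded by Illumina sequencing, PSI is the read-weighted mean bin number.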

For QSRSFRILAHLTGTEFMQDPDEEH [PDLIM7], the protein stability index (treatment: DMSO) is 3.95 ± 0.11 and the protein stability index (treatment: MLN4924 1 uM, 8 h) worked out at 4.17 ± 0.07.
For THTKEQILELVVLEQFVAILPKEL [ZNF24], the protein stability index by setting is: (treatment: DMSO) 3.04 ± 0.72; (treatment: MLN4924 1 uM, 8 h) 2.54 ± 0.66.
Consider IDLSAWCYYCQAYVHHQALLDVKN [HDAC6], for which the protein stability index is, setting by setting: (treatment: DMSO) 2.73 ± 0.38; (treatment: MLN4924 1 uM, 8 h) 3.08 ± 1.2.
In the case of LCIHTGRELRCKVFPIKHYQDKIR [TRIB1], the protein stability index by setting is: (treatment: DMSO) 2.27 ± 0.52; (treatment: MLN4924 1 uM, 8 h) 2.18 ± 0.18.
For SLKEDLTQHKFICEQCGKCKCGEC [SPRY1], the protein stability index reads like this: (treatment: DMSO) 5.32 ± 0.36; (treatment: MLN4924 1 uM, 8 h) 5.22 ± 0.14.
With EVSSIQVRRKPQHGVCSQLLGNYR [SERPINB9P1], the protein stability index (treatment: DMSO) was determined as 2.84 ± 0.38 and the protein stability index (treatment: MLN4924 1 uM, 8 h) came to 2.94 ± 0.29.
As to TLKKFKGDLAYRRQEYQKALQEYS [C8orf76], the protein stability index (treatment: DMSO) worked out at 2.82 ± 0.29 and the protein stability index (treatment: MLN4924 1 uM, 8 h) was determined as 2.79 ± 0.31.
Turning to TVKTHLTSLKTKFPAEQYYRFHEH [TSN], the protein stability index is, setting by setting: (treatment: DMSO) 2.32 ± 0.25; (treatment: MLN4924 1 uM, 8 h) 2.44 ± 0.36.
In the case of PGSTRPHRSACSSAAVRGHPRALP [HAGHL], the protein stability index (treatment: DMSO) stood at 3.19 ± 0.23 and the protein stability index (treatment: MLN4924 1 uM, 8 h) came to 3.15 ± 0.24.
Consider LNRALSNLSSRWKNWWVRGILTLA [CDS2], for which the protein stability index is, setting by setting: (treatment: DMSO) 3.17 ± 0.31; (treatment: MLN4924 1 uM, 8 h) 3.1 ± 0.49.
Turning to QVTCSILAYLPFKLEKSIDSYYRL [PCDHGA10], the protein stability index was 2.79 ± 1.1 (treatment: DMSO) and 2.05 ± 0.81 (treatment: MLN4924 1 uM, 8 h).
The matching figures for SAAGHLKVVQSLLNHGASVNNTTL [FEM1C]: 3.06 ± 0.21 and 3.13 ± 0.38.
The matching figures for ETVADVRTLPNASTVDNIRSIFGN [MLH1]: 4.21 ± 0.18 and 4.19 ± 0.11.
Turning to NPYHQPYISRKYFATRPGAIETAM [TPRG1], the protein stability index was found to be 2.22 ± 0.18 (treatment: DMSO) and 2.52 ± 0.25 (treatment: MLN4924 1 uM, 8 h).
For SKKLRAILPKQSRKSMLDAGPDSW [LCOR], in that order: 2.71 ± 0.06 and 3.03 ± 0.44.
Turning to STVQILTEGFPPGGGNARATGMFL [ZFYVE21], the protein stability index runs as follows: (treatment: DMSO) 2.16 ± 0.19; (treatment: MLN4924 1 uM, 8 h) 2.27 ± 0.35.
The matching figures for EAACNDVDRWPAPVPGKTLHLPIM [DENND6A]: 3.52 ± 0.35 and 3.19 ± 0.37.
With LAICRPLTYSTRMSQTVQRMLVAA [OR3A1], the protein stability index worked out at 2.49 ± 0.17 (treatment: DMSO) and 2.54 ± 0.14 (treatment: MLN4924 1 uM, 8 h).
As to VAAELLNHLLESMPLREGSSFQDL [HES6], the protein stability index is, setting by setting: (treatment: DMSO) 3.11 ± 0.69; (treatment: MLN4924 1 uM, 8 h) 3.35 ± 0.79.
For the sequence FHGWKYMFGLVIPLGVLQAIAMYF [SLC2A12], the protein stability index is 2.31 ± 0.46 (treatment: DMSO) and 2.6 ± 0.56 (treatment: MLN4924 1 uM, 8 h).
Turning to GSKARAEGRGPVTPLHLDLTQLHR [PLEKHN1], the protein stability index is, setting by setting: (treatment: DMSO) 3.52 ± 0.061; (treatment: MLN4924 1 uM, 8 h) 3.835 ± 0.001.
Sequence YPCVLATEGFTSGRHYWEVEVGDK [TRIM39] came in with a protein stability index (treatment: DMSO) of 2.59 ± 0.62 and a protein stability index (treatment: MLN4924 1 uM, 8 h) of 3.27 ± 0.68.
YSKFHGLEMCVDARTFGNEARFIR [KMT2E] yielded a protein stability index (treatment: DMSO) of 2.21 ± 0.17 and a protein stability index (treatment: MLN4924 1 uM, 8 h) of 2.25 ± 0.22.
Consider AARPDVKCVVHIHTPAGAAVSAMK [ADD1], for which the protein stability index reads like this: (treatment: DMSO) 2.95 ± 0.28; (treatment: MLN4924 1 uM, 8 h) 3.11 ± 0.28.
In the case of SSLEEIVEKQGDTIEYLKRHNALL [TMEM192], the protein stability index reads like this: (treatment: DMSO) 3.82 ± 0.38; (treatment: MLN4924 1 uM, 8 h) 3.92 ± 0.16.
LSDTELTTLLRRYNIPHGPVVGST [EMD]: the protein stability index reads like this: (treatment: DMSO) 2.74 ± 0.38; (treatment: MLN4924 1 uM, 8 h) 2.69 ± 0.26.
With PQPDPVFLEALSSRYLGDSGLDDF [SERTAD3], the protein stability index worked out at 4.19 ± 0.47 (treatment: DMSO) and 4.08 ± 0.14 (treatment: MLN4924 1 uM, 8 h).
On to DHKRETERVVREALEKLRSEMEEE [ZMYND11], for which the protein stability index amounted to 4.99 ± 0.18 (treatment: DMSO) and 5.35 ± 0.12 (treatment: MLN4924 1 uM, 8 h).
FNKGIYDIHVGLRGVPLLEWETEV [CLCN6]: the protein stability index reads like this: (treatment: DMSO) 2.13 ± 0.32; (treatment: MLN4924 1 uM, 8 h) 2.17 ± 0.44.
For PQHQAGSDSLLTGMAFFKMREMFF [CNOT7], the protein stability index came out at 2.13 ± 0.16 (treatment: DMSO) and 2.15 ± 0.099 (treatment: MLN4924 1 uM, 8 h).
The sequence RHFGTILNYLRDGSVPLPESTREL [KCTD13] registered a protein stability index (treatment: DMSO) of 2.78 ± 0.16 and a protein stability index (treatment: MLN4924 1 uM, 8 h) of 2.94 ± 0.41.
For PVGEPVTNVRLQPAATWNLEEKRL [FCHO1], in that order: 4.52 ± 0.27 and 4.63 ± 0.24.
In the case of AMDLGFFVVMGVIGGLLGATFNCL [CLCN6], the protein stability index by setting is: (treatment: DMSO) 2.68 ± 0.13; (treatment: MLN4924 1 uM, 8 h) 3.19 ± 0.056.
With EVMKCIVEVISDTLSKPSPMPVSQ [CHGA], the protein stability index is, setting by setting: (treatment: DMSO) 2.55 ± 0.18; (treatment: MLN4924 1 uM, 8 h) 2.48 ± 0.4.
As for VLAIPRRLRVELECEEGELSFYDA [TRIM35], the protein stability index (treatment: DMSO) came out at 2.96 ± 0.2 and the protein stability index (treatment: MLN4924 1 uM, 8 h) stood at 3.08 ± 0.23.
In the case of LPPEKGREVAKELGLPYYETSVFD [RHOBTB1], the protein stability index was found to be 3.65 ± 0.18 (treatment: DMSO) and 3.8 ± 0.24 (treatment: MLN4924 1 uM, 8 h).
